Target: AAV-DJ capsid proteins VP2 and VP3 (capsid shell) (adeno-associated virus, AAV-DJ (engineered capsid))
Experiment: co-sedimentation

## AAV-DJ capsid protein VP1 (wild type) (natural protein)
  VP1 copies per 60-mer capsid (VP1 copies per 60-mer capsid): 3

Source: publication PMC10661864
